Assay results taken from PMC4658161, “Mutually Exclusive Roles of SHARPIN in Integrin Inactivation and NF-κB Signaling” (PLoS ONE, 2015).

Target: T1, recombinant full-length human ITGAL-ITGB2 (human, UniProt P20701 26-1170; P05107 23-769)
T1 construct: integrin alpha L (ITGAL), human, full-length; integrin beta 2 (ITGB2), human, full-length; also called full-length ITGAL-ITGB2; LFA-1; source: bought: Origene
Assay: far-Western; GST-SHARPIN (WT, fragments or point mutants) with recombinant full-length ITGAL-ITGB2 or recombinant RNF31; which partner was on the membrane is not told; performed as described in ref. 5
Conditions: both partners purified

T1 sequence (P20701 26-1170, chain 1 of 2): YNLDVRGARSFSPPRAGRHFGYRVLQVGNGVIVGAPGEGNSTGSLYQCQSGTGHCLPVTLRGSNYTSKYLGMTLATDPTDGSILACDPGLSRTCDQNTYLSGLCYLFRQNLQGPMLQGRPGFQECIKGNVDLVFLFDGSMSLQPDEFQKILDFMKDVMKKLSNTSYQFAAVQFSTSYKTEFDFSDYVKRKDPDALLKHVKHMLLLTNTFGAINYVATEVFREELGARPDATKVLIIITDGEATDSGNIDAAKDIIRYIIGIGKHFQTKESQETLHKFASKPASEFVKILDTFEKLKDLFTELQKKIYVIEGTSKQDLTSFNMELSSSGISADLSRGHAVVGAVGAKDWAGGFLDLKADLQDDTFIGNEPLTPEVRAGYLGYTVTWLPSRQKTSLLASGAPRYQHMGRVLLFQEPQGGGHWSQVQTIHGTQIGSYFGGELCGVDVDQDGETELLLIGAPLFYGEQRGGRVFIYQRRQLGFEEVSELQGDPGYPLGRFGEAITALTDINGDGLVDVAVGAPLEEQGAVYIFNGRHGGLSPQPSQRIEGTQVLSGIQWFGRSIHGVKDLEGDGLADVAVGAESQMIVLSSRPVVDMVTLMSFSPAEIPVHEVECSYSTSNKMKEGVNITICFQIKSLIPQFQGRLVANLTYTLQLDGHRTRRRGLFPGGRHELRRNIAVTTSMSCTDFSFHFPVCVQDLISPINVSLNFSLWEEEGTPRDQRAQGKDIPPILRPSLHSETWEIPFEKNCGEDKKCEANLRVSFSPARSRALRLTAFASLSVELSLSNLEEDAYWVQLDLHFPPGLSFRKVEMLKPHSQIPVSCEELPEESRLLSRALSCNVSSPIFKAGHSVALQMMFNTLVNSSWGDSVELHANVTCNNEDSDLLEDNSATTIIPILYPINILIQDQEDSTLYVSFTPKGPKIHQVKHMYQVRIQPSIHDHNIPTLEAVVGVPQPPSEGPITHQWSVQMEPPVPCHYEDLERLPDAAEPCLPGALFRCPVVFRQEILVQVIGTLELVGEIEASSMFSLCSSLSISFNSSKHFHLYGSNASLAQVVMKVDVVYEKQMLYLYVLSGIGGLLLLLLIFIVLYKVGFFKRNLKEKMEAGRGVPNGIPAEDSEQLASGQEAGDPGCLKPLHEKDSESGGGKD
T1 sequence (P05107 23-769, chain 2 of 2): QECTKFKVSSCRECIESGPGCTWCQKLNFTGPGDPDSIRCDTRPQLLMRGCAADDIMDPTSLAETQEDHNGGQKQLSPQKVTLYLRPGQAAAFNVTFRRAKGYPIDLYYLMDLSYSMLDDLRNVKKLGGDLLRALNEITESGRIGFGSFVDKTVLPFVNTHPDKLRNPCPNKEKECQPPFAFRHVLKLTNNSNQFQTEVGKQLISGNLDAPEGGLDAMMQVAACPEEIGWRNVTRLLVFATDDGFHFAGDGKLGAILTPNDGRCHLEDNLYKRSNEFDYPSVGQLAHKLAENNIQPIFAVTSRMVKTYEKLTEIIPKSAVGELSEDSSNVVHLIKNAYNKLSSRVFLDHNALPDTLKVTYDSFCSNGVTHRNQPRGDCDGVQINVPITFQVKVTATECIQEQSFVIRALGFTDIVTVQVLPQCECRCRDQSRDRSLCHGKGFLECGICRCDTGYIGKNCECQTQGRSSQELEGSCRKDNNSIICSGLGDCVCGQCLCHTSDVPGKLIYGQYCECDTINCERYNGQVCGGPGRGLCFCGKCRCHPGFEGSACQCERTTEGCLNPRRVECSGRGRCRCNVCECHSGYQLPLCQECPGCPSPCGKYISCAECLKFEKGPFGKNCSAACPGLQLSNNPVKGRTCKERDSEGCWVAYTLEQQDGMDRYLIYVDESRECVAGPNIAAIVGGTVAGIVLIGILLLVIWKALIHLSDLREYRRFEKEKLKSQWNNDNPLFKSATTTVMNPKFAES

binding result | Binder
binds | GST-SHARPIN^WT (natural protein, UniProt Q9H0F6 1-387, looked up, also called GST-SHARPIN (full-length); source: E. coli strain Rosetta BL21DE3, purified) MAPPAGGAAAAASDLGSAAVLLAVHAAVRPLGAGPDAEAQLRRLQLSADPERPGRFRLELLGAGPGAVNLEWPLESVSYTIRGPTQHELQPPPGGPGTLSLHFLNPQEAQRWAVLVRGATVEGQNGSKSNSPPALGPEACPVSLPSPPEASTLKGPPPEADLPRSPGNLTEREELAGSLARAIAGGDEKGAAQVAAVLAQHRVALSVQLQEACFPPGPIRLQVTLEDAASAASAASSAHVALQVHPHCTVAALQEQVFSELGFPPAVQRWVIGRCLCVPERSLASYGVRQDGDPAFLYLLSAPREAPATGPSPQHPQKMDGELGRLFPPSLGLPPGPQPAASSLPSPLQPSWSCPSCTFINAPDRPGCEMCSTQRPCTWDPLAAAST
binds | GST-SHARPIN^L276A (natural protein, UniProt Q9H0F6 1-387, looked up, source: E. coli strain Rosetta BL21DE3, purified) MAPPAGGAAAAASDLGSAAVLLAVHAAVRPLGAGPDAEAQLRRLQLSADPERPGRFRLELLGAGPGAVNLEWPLESVSYTIRGPTQHELQPPPGGPGTLSLHFLNPQEAQRWAVLVRGATVEGQNGSKSNSPPALGPEACPVSLPSPPEASTLKGPPPEADLPRSPGNLTEREELAGSLARAIAGGDEKGAAQVAAVLAQHRVALSVQLQEACFPPGPIRLQVTLEDAASAASAASSAHVALQVHPHCTVAALQEQVFSELGFPPAVQRWVIGRCACVPERSLASYGVRQDGDPAFLYLLSAPREAPATGPSPQHPQKMDGELGRLFPPSLGLPPGPQPAASSLPSPLQPSWSCPSCTFINAPDRPGCEMCSTQRPCTWDPLAAAST
